Reference: the RNAGym collection of RNA variant scans (doi:10.7554/elife.80360)

B1: CPEB3 Ribozyme (parent)
chain: GGGGGCCACAGCAGAAGCGUUCACGUCGCGGCCCCUGUCAGAUUCUGGUGAAUCUGCGAAUUCUGCUGU

Variants of: B1
Assay: self-cleavage, relative activity (ratio to wild type); higher = more cleavage; co-transcriptional

| Variant | self-cleavage |
| --- | --- |
| U53A G65C | 0.552 |
| C54G G56A | 0.658 |
| C54G G56C | 0.43 |
| U53A C63U | 0.909 |
| U53A C63G | 0.709 |
| C54U A60U | 0.468 |
| C54U A60C | 0.211 |
| A52U U62A | 0.829 |
| A52U U62G | 0.82 |
| G56A C66U | 0.929 |
| G56A C66G | 0.744 |
| A52U A59U | 0.803 |
| A52U A59G | 0.972 |
| U53C C63G | 0.451 |
| U53C C63A | 0.402 |
| G56A C63U | 0.943 |
| G56A C63G | 0.667 |
| C54U G56U | 0.75 |
| C54U G56C | 0.466 |
| C54U G56A | 0.923 |
| C54G C57A | 0.348 |
| C54G C57G | 0.274 |
| G56A G65A | 0.777 |
| G56A G65C | 0.508 |

| Variant | self-cleavage |
| --- | --- |
| G56A G65U | 0.627 |
| C54A G58U | 0.968 |
| C54A G58C | 0.857 |
| U55A G65A | 0.581 |
| U53A U67G | 0.938 |
| U53A U67A | 0.834 |
| A52U U64G | 0.666 |
| A52U U64C | 0.741 |
| C54U U67C | 1.01 |
| C54U U67G | 0.987 |
| C54U U67A | 0.993 |
| U53C U69C | 1.05 |
| U53C U69G | 0.993 |
| A52U G65A | 0.783 |
| U55G U69A | 0.953 |
| U55G U69G | 1 |
| U55A G68A | 0.942 |
| U55A G68U | 0.992 |
| G56C | 0.871 |
| G56A | 0.977 |
| G56A C57A | 0.413 |
| G56A C57U | 0.308 |
| G56A C57G | 0.306 |
| C54A G68A | 0.955 |

| Variant | self-cleavage |
| --- | --- |
| C54G C63G | 0.514 |
| C54G C63U | 0.797 |
| U53A U69G | 1.05 |
| U53A U69A | 1.01 |
| U55A G58U | 0.988 |
| U55A G58C | 0.993 |
| U53G G56C | 0.331 |
| U53G G56A | 0.553 |
| U53G G56U | 0.401 |
| C54G U61C | 0.429 |
| C54U A59U | 0.883 |
| C54U A59G | 1.04 |
| C54U U62A | 0.901 |
| C54U U62C | 1.02 |
| C54U U62G | 0.951 |
| G56A U61A | 0.824 |
| U53C U55C | 0.409 |
| U53C U55G | 0.303 |
| U53C U55A | 0.364 |
| C54U C63G | 0.859 |
| C54U C63A | 0.797 |
| U55A U64G | 0.613 |
| U55A U64C | 0.479 |
| C54U C57A | 0.413 |

| Variant | self-cleavage |
| --- | --- |
| C54U C57G | 0.407 |
| C54U C57U | 0.385 |
| U53C C57U | 0.43 |
| U53C C57A | 0.346 |
| U53C C57G | 0.398 |
| U55G U62A | 0.427 |
| U55G U62C | 0.517 |
| C54G G58C | 0.829 |
| C54G G58U | 0.93 |
| U53G G68A | 0.909 |
| U55C G65C | 0.416 |
| U55A U61A | 0.635 |
| U55A U61G | 0.6 |
| C54A C66U | 0.911 |
| C54A C66A | 0.45 |
| U53A A59G | 0.98 |
| U53A A59C | 0.571 |
| U53A A59U | 0.646 |
| U55A C63A | 0.464 |
| U55A C63G | 0.438 |
| A52U C54A | 0.907 |
| A52U C54G | 0.835 |
| C54G G68A | 0.99 |
| C54G G68C | 0.947 |

| Variant | self-cleavage |
| --- | --- |
| A52U U67C | 0.915 |
| A52U U67G | 0.987 |
| G56A U64A | 0.798 |
| U55C U69A | 0.971 |
| U55C U69G | 1.01 |
| U55C U69C | 1.06 |
| U55C A60C | 0.306 |
| U55G U61C | 0.293 |
| U55G U61G | 0.547 |
| U55G C63A | 0.345 |
| U55G C63G | 0.399 |
| C54U G68U | 1.06 |
| C54U G68C | 1.02 |
| C54U G68A | 1.02 |
| A52U G68U | 0.992 |
| A52U G68C | 0.98 |
| U55G C66U | 0.681 |
| U55G C66A | 0.437 |
| C54A G56U | 0.471 |
| C54A G56A | 0.695 |
| U55C C66U | 0.816 |
| U55C C66G | 0.437 |
| U55C C66A | 0.342 |
| U53C U62G | 0.384 |

| Variant | self-cleavage |
| --- | --- |
| U53C U62A | 0.549 |
| U53C U64A | 0.525 |
| U53C U64G | 0.535 |
| U53C U64C | 0.536 |
| U53A G58U | 0.944 |
| U53A G58A | 0.919 |
| U53A G58C | 0.917 |
| U55G G58A | 0.644 |
| U55G G58C | 0.964 |
| U53C G56C | 0.39 |
| U53C G56A | 0.539 |
| A52U U53G | 0.871 |
| A52U U53A | 0.981 |
| A52U U53C | 0.879 |
| U53C U61G | 0.58 |
| U53C G58A | 0.85 |
| U53C G58C | 0.94 |
| U55A U67C | 0.906 |
| U53G A60G | 0.793 |
| U53G A60U | 0.301 |
| U53G A60C | 0.308 |
| U55C G58U | 0.968 |
| U55C G58C | 0.918 |
| U55C G58A | 0.91 |

| Variant | self-cleavage |
| --- | --- |
| U55G U67C | 0.612 |
| U55G U67A | 0.884 |
| C54A G65A | 0.629 |
| C54A G65U | 0.519 |
| C54U G58A | 0.987 |
| C54U G58C | 0.97 |
| U55A A60G | 0.615 |
| U55A A60U | 0.298 |
| U55C A59U | 0.545 |
| C54G U62A | 0.59 |
| C54A C63U | 0.796 |
| C54A C63A | 0.538 |
| C54A C63G | 0.445 |
| A52U C63G | 0.72 |
| A52U C63A | 0.789 |
| U53G C54G | 0.673 |
| U53G C54U | 0.815 |
| A52U G56C | 0.456 |
| U53G U61G | 0.681 |
| U53G U61A | 0.706 |
| U53G U61C | 0.473 |
| U53A U61A | 0.694 |
| U53A U61C | 0.583 |
